According to US20230183352A1 (published 2023):

B1: QP14381433 (antibody, V domains shown)
VH: EVQLVESGGGLVKPGGSLRLSCAASGFTFSNYAMSWVRQAPGKRLEWVASIISGGRTYYLDSEKGRFTISRDNAKNSLYLQMNSLRAEDTAVYYCTRIYYGNSFDYWGQGTLVTVSS
VL: DIVMTQSPDSLAVSLGERATINCKSSQSLLNSGNQKNYLTWYQQKPGQPPKLLIYWASTRESGVPDRFSGSGSGTDFTLTISSLQAEDVAVYYCQNDYSYPFTFGQGTKLEIK
B2: QP192193 (antibody, V domains shown)
VH: QVQLQQSGAELVRPGSSVKISCKASGYAFSSYWMNWVKQRPGQGLEWIGQIYPGNGDTTYNGKFKGQATLTADKSSSTVYMQLSSLTSEDSAVYFCARFVKGNAMDYWGQGTSVTVSS
VL: DIVMTQSPSSLTVTAGEKVTMSCKSSQSLLNSGNQKNYLTWYQQNPGQPPKMLIYWASTRESGVPDRFTGSGSGIDFSLTISSVQAEDLALYYCQNAYSYPFTFGSGTKLEIK
B3: QP14661462 (antibody, V domains shown)
VH: EVQLVQSGAEVKKPGASVKVSCKASGYTFTSYIMHWVKQAPGQGLEWIGYINPYNDGTKYNEKFKGKATLTSDKSTSTVYMELSSLRSEDTAVYCCARLGFTTRNAMDYWGQGTLVTVSS
VL: DIVMTQSPDSLAVSLGERATINCKSSQSLLNSGNQKNYLAWYQQKPGQPPKLLIYGASTRESGVPDRFTGSGSGTDFTLTISSVQAEDVAVYYCQNDHSYPFTFGQGTKLEIK
B4: QP14431439 (antibody, V domains shown)
VH: QVQLVQSGAEVKKPGASVKVSCKASGYAFSSYWMNWVRQAPGQGLEWMGQIYPGNGDTTYNGKFKGRVTMTRDTSTSTVYMELSSLRSEDTAVYYCARFVKGNAMDYWGQGTLVTVSS
VL: DIVMTQSPDSLAVSLGERATINCKSSQSLLNSGNQKNYLTWYQQKPGQPPKLLIYWASTRESGVPDRFSGSGSGTDFTLTISSLQAEDVAVYYCQNAYSYPFTFGQGTKLEIK
B5: QP14631462 (antibody, V domains shown)
VH: QVQLVQSGAEVKKPGASVKVSCKASGYTFTSYIMHWVRQAPGQGLEWMGYINPYNDGTKYNEKFKGRVTMTRDTSTSTVYMELSSLRSEDTAVYYCARLGFTTRNAMDYWGQGTLVTVSS
VL: DIVMTQSPDSLAVSLGERATINCKSSQSLLNSGNQKNYLAWYQQKPGQPPKLLIYGASTRESGVPDRFTGSGSGTDFTLTISSVQAEDVAVYYCQNDHSYPFTFGQGTKLEIK
B6: QP14511447 (antibody, V domains shown)
VH: EVQLVESGGGLVQPGGSLRLSCAASGFTFSSFGMHWVRQAPGKGLEWVAYISSGSNSIYYVDTVKGRFTISRDNAKNSLYLQMNSLRSEDTAVYYCARNAYYGNSFDYWGQGTLVTVSS
VL: DIVMTQSPDSLAVSLGERATISCKSSQSLLNSGNQKNYLTWYQQKPGQPPKLLIYWASTRESGVPDRFSGSGSGTDFTLTISSLQAEDVAVYFCQNNYYYPLTFGGGTKVEIK
B7: QP14491447 (antibody, V domains shown)
VH: EVQLVESGGGLVQPGGSLRLSCAASGFTFSSFGMHWVRQAPGKGLEWVSYISSGSNSIYYVDTVKGRFTISRDNAKNSLYLQMNSLRDEDTAVYYCARNAYYGNSFDYWGQGTLVTVSS
VL: DIVMTQSPDSLAVSLGERATISCKSSQSLLNSGNQKNYLTWYQQKPGQPPKLLIYWASTRESGVPDRFSGSGSGTDFTLTISSLQAEDVAVYFCQNNYYYPLTFGGGTKVEIK
B8: QP14431440 (antibody, V domains shown)
VH: QVQLVQSGAEVKKPGASVKVSCKASGYAFSSYWMNWVRQAPGQGLEWMGQIYPGNGDTTYNGKFKGRVTMTRDTSTSTVYMELSSLRSEDTAVYYCARFVKGNAMDYWGQGTLVTVSS
VL: DIVMTQSPDSLAVSLGERATISCKSSQSLLNSGNQKNYLTWYQQKPGQPPKLLIYWASTRESGVPDRFSGSGSGTDFTLTISSLQAEDVAVYYCQNAYSYPFTFGQGTKLEIK

The binders below were run against T1, Claudin 18.2 (CLDN18.2), expressed on CHOS-CLDN 18.2 / HEK293-CLDN 18.2 / HCC827-CLDN 18.2 cells (human, UniProt P56856 1-261) (assay: cell ELISA).

Row | Binder | EC50
1 | B1 | 0.125 µg/mL

Biological target: T1, Claudin 18.2 (CLDN18.2), expressed on …
Test: cell ELISA
Remark: another data set of the same source

Row | Binder | EC50
2 | B2 | 0.101 µg/mL
3 | B3 | 0.538 µg/mL
4 | B4 | 0.111 µg/mL
5 | B5 | 0.105 µg/mL
6 | B6 | 0.202 µg/mL
7 | B7 | 0.148 µg/mL
8 | B8 | 0.124 µg/mL

Biological target: T1, Claudin 18.2 (CLDN18.2), expressed on …
Test: cell ELISA
Remark: another data set of the same source

Row | Binder | EC50
9 | B2 | 0.155 µg/mL
